# Assay results taken from PMC3718342.
# T1: 6His-Scy (recombinant, from E. coli)
# T1 chain: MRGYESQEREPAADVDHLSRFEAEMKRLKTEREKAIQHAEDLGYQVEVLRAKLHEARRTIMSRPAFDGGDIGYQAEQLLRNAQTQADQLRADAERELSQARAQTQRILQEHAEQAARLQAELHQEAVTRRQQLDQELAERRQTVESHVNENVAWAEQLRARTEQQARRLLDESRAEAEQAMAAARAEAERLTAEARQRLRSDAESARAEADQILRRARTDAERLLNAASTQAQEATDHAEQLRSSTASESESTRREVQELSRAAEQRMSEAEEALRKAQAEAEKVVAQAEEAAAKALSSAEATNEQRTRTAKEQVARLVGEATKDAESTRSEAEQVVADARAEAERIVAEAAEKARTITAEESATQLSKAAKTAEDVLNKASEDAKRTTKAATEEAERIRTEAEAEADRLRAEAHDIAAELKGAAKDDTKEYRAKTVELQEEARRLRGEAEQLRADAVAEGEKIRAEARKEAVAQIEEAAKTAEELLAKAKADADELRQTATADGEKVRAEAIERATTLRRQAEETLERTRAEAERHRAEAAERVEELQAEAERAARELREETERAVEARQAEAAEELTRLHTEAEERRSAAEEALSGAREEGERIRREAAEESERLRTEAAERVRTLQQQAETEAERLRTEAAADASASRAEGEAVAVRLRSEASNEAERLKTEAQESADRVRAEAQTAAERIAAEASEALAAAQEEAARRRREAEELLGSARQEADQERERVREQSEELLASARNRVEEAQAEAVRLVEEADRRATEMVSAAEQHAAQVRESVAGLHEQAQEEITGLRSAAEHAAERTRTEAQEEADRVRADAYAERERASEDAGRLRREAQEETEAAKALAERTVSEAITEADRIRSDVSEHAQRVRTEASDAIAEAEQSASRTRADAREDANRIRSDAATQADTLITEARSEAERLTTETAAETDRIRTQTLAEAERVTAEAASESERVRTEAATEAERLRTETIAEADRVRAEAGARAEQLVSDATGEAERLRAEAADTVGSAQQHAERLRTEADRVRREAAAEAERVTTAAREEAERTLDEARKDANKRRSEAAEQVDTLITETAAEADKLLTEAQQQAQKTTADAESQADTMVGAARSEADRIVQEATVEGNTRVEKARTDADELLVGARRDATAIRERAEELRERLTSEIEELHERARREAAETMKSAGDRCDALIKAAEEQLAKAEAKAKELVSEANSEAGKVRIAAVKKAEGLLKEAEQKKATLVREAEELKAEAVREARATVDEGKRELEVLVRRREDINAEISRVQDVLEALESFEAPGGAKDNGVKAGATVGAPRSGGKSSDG
# Target: T1, 6His-Scy (recombinant, from E. coli)
# Experiment: SPR
# Details: chain shown with the change, ParA or ParAScy- (500 RU) immobilized on CM5 in the presence of ATP, read off a plot
binder,measurement,setting,value
ParA (purified recombinant wild type) S249Y; E250V (protein) MDDTPIGRAAQLAVEALGRAGEGLPRPEQTRVMVVANQKGGVGKTTTTVNLAASLALHGARVLVVDLDPQGNASTALGIDHHADVPSIYDVLVESRPLSEVVQPVPDVEGLFCAPATIDLAGAEIELVSLVARESRLQRAITAYEQPLDYILIDCPPSLGLLTVNALVAGQEVLIPIQCEYYALEGLGQLLRNVDLVRGHLNPTLHVSTILLTMYDGRTRLASQVADEVRSHFGEEVLRTSIPRSVRIYVAPSYGQTVLTYDPGSSGALSYLEAAREIALKGVGVTYDATHAHLGAQNDPSMVEGTQ,response,"600 nM 6His-Scy, parent: est. 13",4.5 RU
same,response,"1000 nM 6His-Scy, parent: est. 27",12 RU
same,response,"2000 nM 6His-Scy, parent: est. 43",17 RU
same,response,"4000 nM 6His-Scy, parent: est. 53",25 RU
